Laboratory results: article PMC2928679 (The EMBO Journal, 2010)

B1: FlagHis12-tagged mouse Ring1b (natural protein)
chain: MSQAVQTNGTQPLSKTWELSLYELQRTPQEAITDGLEIVVSPRSLHSELMCPICLDMLKNTMTTKECLHRFCADCIITALRSGNKECPTCRKKLVSKRSLRPDPNFDALISKIYPSRDEYEAHQERVLARINKHNNQQALSHSIEEGLKIQAMNRLQRGKKQQIENGSGAEDNGDSSHCSNASTHSNQEAGPSNKRTKTSDDSGLELDNNNAAVAIDPVMDGASEIELVFRPHPTLMEKDDSAQTRYIKTSGNATVDHLSKYLAVRLALEELRSKGESNQMNLDTASEKQYTIYIATASGQFTVLNGSFSLELVSEKYWKVNKPMELYYAPTKEHK
B2: FlagHis12-tagged mouse Mel18 (natural protein)
chain: MHRTTRIKITELNPHLMCALCGGYFIDATTIVECLHSFCKTCIVRYLETNKYCPMCDVQVHKTRPLLSIRSDKTLQDIVYKLVPGLFKDEMKRRRDFYAAYPLTEVPNGSNEDRGEVLEQEKGALGDDEIVSLSIEFYEGVRDREEKKNLTENGDGDKEKTGVRFLRCPAAMTVMHLAKFLRNKMDVPSKYKVEILYEDEPLKEYYTLMDIAYIYPWRRNGPLPLKYRVQPACKRLTLPTVPTPSEGTNTSGASECESVSDKAPSPATLPATSSSLPSPATPSHGSPSSHGPPATHPTSPTPPSTAAGTTTATNGGTSNCLQTPSSTSRGRKMTVNGAPCPP
B3: CBX8-Flag purified from bacteria (natural protein)
chain: MELSAVGERVFAAEALLKRRIRKGRMEYLVKWKGWSQKYSTWEPEENILDARLLAAFEEREREMELYGPKKRGPKPKTFLLKAQAKAKAKTYEFRSDSARGIRIPYPGRSPQDLASTSRAREGLRNMGLSPPASSTSTSSTCRAEAPRDRDRDRDRDRERDRERERERERERERERERERGTSRVDDKPSSPGDSSKKRGPKPRKELPDPSQRPLGEPSAGLGEYLKGRKLDDTPSGAGKFPAGHSVIQLARRQDSDLVQCGVTSPSSAEATGKLAVDTFPARVIKHRAAFLEAKGQGALDPNGTRVRHGSGPPSSGGGLYRDMGAQGGRPSLIARIPVARILGDPEEESWSPSLTNLEKVVVTDVTSNFLTVTIKESNTDQGFFKEKR
B4: FlagHis12-tagged mouse Bmi1 (natural protein)
chain: MHRTTRIKITELNPHLMCVLCGGYFIDATTIIECLHSFCKTCIVRYLETSKYCPICDVQVHKTRPLLNIRSDKTLQDIVYKLVPGLFKNEMKRRRDFYAAHPSADAANGSNEDRGEVADEEKRIITDDEIISLSIEFFDQSRLDRKVNKEKPKEEVNDKRYLRCPAAMTVMHLRKFLRSKMDIPNTFQIDVMYEEEPLKDYYTLMDIAYIYTWRRNGPLPLKYRVRPTCKRMKMSHQRDGLTNAGELESDSGSDKANSPAGGVPSTSSCLPSPSTPVQSPHPQFPHISSTMNGTSNSPSANHQSSFASRPRKSSLNGSSATSSG

Biological target: GST-USP7 (human, UniProt Q93009-1 1-1102)
Sequence (Q93009 whole entry): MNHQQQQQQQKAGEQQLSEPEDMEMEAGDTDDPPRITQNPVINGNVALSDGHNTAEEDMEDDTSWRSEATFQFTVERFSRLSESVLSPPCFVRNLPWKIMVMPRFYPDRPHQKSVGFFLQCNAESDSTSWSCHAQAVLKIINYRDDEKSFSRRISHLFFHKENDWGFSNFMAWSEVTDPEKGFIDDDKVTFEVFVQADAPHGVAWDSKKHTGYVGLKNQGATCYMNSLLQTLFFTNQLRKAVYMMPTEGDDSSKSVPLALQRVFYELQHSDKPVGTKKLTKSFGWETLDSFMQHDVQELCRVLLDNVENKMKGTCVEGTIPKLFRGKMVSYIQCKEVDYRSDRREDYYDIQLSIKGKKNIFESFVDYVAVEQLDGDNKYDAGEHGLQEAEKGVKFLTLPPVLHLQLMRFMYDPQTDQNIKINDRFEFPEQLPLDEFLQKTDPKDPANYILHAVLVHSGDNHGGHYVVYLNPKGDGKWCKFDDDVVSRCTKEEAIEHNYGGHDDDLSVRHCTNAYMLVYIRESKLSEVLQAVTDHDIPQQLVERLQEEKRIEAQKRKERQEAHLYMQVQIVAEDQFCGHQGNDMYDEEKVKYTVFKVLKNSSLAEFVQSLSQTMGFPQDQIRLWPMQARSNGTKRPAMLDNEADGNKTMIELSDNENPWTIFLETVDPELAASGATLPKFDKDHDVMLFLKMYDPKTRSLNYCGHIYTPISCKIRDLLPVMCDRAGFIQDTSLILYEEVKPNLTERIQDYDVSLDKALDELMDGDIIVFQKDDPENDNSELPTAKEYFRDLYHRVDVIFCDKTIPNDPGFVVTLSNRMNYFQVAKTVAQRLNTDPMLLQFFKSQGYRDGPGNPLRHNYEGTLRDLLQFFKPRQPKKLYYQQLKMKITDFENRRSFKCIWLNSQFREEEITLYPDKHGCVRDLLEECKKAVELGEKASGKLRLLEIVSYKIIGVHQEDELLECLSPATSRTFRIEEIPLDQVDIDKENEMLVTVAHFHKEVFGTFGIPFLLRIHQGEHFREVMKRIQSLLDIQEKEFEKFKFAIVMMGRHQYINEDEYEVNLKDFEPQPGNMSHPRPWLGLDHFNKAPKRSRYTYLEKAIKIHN
Test: pull-down

| Binder | binding result |
| --- | --- |
| B1 | binds |
| B2 | binds |
| B3 | binds |
| B4 | binds |
